In this experiment the target is MERS-CoV S S1 subunit (MERS-S1) (MERS-CoV EMC isolate, UniProt K9N5Q8 19-748). In words: ForteBio Octet kinetic measurement (FIG. 3A).

B1: 2.9d7 (antibody, V domains shown)
VH: QRKLVESGGGVVQPGRSLRLSCAVSGLIFSNYGMHWVRQAPGKGLEWVAVIWYDGSNTYYTDSVKGRFTISRDNSKNTLYLQMNSLRAEDTAVYYCARDRGMTAPGPGTYYYFYGMDVWGQGTTVTVSS
VL: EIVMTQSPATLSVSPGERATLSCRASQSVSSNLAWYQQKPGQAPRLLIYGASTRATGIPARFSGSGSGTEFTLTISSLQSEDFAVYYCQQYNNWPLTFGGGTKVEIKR
B1 yielded a dissociation constant Kd of around 0.35 nM.

B2: 7.7h8 (antibody, V domains shown)
VH: QVQLVESGGGVVQTGRSLRLSCAASGFTFSAYAMHWVRQAPGKGLEWVTFIGYEESNKYHADSVKGRFTISRDNSKNTLYLQMNSLRAEDTAVYYCARDRGISVAATWDYYYYYGMDVWGQGTTVTVSS
VL: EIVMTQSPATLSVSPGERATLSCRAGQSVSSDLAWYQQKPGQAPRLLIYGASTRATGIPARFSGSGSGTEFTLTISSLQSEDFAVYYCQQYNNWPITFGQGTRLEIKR
Molecule B2 came in with a Kd of around 0.54 nM.

B3: 7.5d3 (antibody, V domains shown)
VH: QVQLVESGGGVVQPGRSLRLSCAATGFTFSYYGMHWVRQAPGKGLEWVAVIWFDGTNIYYADSVRGRFTISRDNSKNTLYLQMNSLRAEDSAVYYCARDRRSSDWYVVFDYWGQGTLVTVSS
VL: DIQLTQSPSFLSASVGDRVTITCRASQGISSYLAWYQQKPGKAPKLLIYAASTLQSGVPSRFSGSGSGTEFTLTISSLQPEDFATYYCQQLNSYPWTFGQGTKVEIKR
On to B3, for which the Kd is around 6 nM.

B4: 4.2c3 (antibody, V domains shown)
VH: QVQLVESGGGVVQPGRSLRLSCTASGFTFSGYGMHWVRQAPGKGLEWVAIIWYDGSNTYYADSAKGRFTISRDNSKNTLYLQMNSLRVEDTAVYYCARDRGISVAALWKYYYYHGLDVWGQGTTVTVSS
VL: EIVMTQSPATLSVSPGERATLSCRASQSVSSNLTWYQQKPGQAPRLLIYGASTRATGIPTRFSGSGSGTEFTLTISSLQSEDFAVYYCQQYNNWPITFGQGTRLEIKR
In turn, B4 showed a Kd of around 0.12 nM.

B5: 7.7f3 (antibody, V domains shown)
VH: QVQLVESGGGVVQPGRSLRLSCTASGFTFSGYGMHWVRQAPGKGLEWVAIIWYDGSNTYYTDSAKGRFTISRDNSKDTLYLQMNSLRVEDTAVYYCARDRGISVAALWKYYYYHGLDVWGQGTTTTVSS
VL: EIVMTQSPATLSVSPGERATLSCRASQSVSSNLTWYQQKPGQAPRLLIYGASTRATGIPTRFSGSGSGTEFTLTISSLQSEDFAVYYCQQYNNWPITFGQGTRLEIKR
Take B5: the Kd is around 0.12 nM.

B6: 4.9f12 (antibody, V domains shown)
VH: QVQLVESGGGVVQPGMSLRLSCTASGFTFSGYAMHWVRQAPVKGLEWVAIIWYDGSNKYYADSVKGRFTISRDNSKNTLYLQMNSLRAEDTAVYYCARDRGISEAAKWKYYYYYGMDVWGQGTTVTVSS
VL: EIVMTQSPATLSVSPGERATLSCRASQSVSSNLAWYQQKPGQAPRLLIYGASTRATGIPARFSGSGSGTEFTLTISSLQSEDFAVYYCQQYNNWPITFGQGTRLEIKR
B6 yielded a dissociation constant Kd of around 0.13 nM.

B7: 4.7a6 (antibody, V domains shown)
VH: QVQLVESGGGVVQPGRSLRLSCTASGFTFSGYAMHWVRQAPVKGLEWVAIIWYDGSNKYYADSVKGRFTISRDNSKNTLYLQMNSLRAEDTAVYYCARDRGISEAAKWKYYYYYGMDVWGQGTTVTVSS
VL: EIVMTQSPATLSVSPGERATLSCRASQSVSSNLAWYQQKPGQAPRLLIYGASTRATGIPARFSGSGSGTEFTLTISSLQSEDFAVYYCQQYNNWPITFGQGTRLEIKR
In turn, B7 returned a dissociation constant Kd of around 0.13 nM.

B8: 1.3h2 (antibody, V domains shown)
VH: QVQLVESGGGVVQPGRSLRLSCAASGFTFSRYGMHWVRQAPGKGLQWVAFIWYDGSNKYYADAVKVRFTISRDNSKNTLYLQMNSLRAEDTAVYYCATEGDYYGSGSYSRAEYFQEWGQGTLVTVSS
VL: EIVMTQSPATLSVSPGERATLSCRASQSVSINLAWYQQKPGQAPRLLIYDTSARATGIPARFSGSGSGTEFTLTISSLQSEDFAVYYCQQYNNWPFTFGPGTKVDIKR
Take B8: the dissociation constant (Kd) was around 1.9 nM.

B9: 7.2h5 (antibody, V domains shown)
VH: QVQLVQSGAEVKKPGSSVKVSCKASGGTFSSYAISWVRQAPGQGLEWMGGIIPIFGTVKNAQKFQGRVTITADKSTGTAYMELSSLRSEDTAVYYCARDHYYDSNDYYWYFDLWGRGTLVTVSS
VL: EIVMTQSPATLSVSPGERATLSCRASQSVSSNLAWYQKKPGQAPRLLIYGASTRVTGIPARFSGSGSGTEFTLTISSLQSEDFAVYYCQQYNNWPLTFGGGTKVEIKR
For the molecule B9, the dissociation constant (Kd) was around 0.36 nM.

B10: 7.3a9 (antibody, V domains shown)
VH: QVQLVESGGGVVQPGRSLRLSCAASGFNFSSDGMHWVRQAPGKGLEWVAVIWYDGRNKYYADSVKGRFTISRDNTKNTLYLQMNSLRAEDTAVYYCARDRGITMGRGPYYYYYGMDVWGQGTTVTVSS
VL: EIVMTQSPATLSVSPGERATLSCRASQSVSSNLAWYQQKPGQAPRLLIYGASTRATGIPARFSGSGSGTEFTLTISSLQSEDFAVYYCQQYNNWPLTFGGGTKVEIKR
Consider B10, for which the Kd is around 0.43 nM.

B11: 7.6c11 (antibody, V domains shown)
VH: QVQLVESGGGVVQPGRSLRLSCAASGFTFSSDGMHWVRQAPGKGLEWVAVIWYDGSSEYYGDSVKGRFTISRDNSKNTLYLQMNSLRAEDTAVYYCARDRGITMGRGVYYYYYGMDVWGQGTTVTVSS
VL: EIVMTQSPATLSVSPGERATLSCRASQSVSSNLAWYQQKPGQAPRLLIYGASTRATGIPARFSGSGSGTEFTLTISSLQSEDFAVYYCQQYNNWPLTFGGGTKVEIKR
Consider B11, for which the Kd was around 0.4 nM.

B12: 7.9g1 (antibody, V domains shown)
VH: QVQLVESGGGVVQPGRSLRLSCAASGFTFSTYAMHWVRQAPGKGLEWVAVIWYDGSNKYYADSVKGRLTISRDNSKNTLFLQMNSLRAEDTAVYYCARDRGITTTDTGYYYYYYGLDIWGQGTTVTVSS
VL: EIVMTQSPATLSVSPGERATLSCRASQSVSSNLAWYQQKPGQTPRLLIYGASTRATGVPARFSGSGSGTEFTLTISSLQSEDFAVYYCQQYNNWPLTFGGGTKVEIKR
For B12, the Kd was around 0.21 nM.

B13: 1.6c2 (antibody, V domains shown)
VH: QVQLVQSGTEVKKPGSSVKVSCKASGGAFSAYAITWVRQAPGQGLEWMGGIIPIFGTAHYAQKFQGRVTITADKSTSTAFMELSSLRSEDTAVYYCAREGDIEVVLAGRGYFDYWGQGTLVTVSS
VL: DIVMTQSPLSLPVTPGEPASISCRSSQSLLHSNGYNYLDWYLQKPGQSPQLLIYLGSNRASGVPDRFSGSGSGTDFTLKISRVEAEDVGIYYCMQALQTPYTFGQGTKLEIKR
In the case of B13, the Kd was around 0.86 nM.

B14: 1.6e1 (antibody, V domains shown)
VH: QVQLVQSGAEVKKPGSSVKVSCKASGGAFSAYAISWVRQAPGQGLEWMGGIIPIFGTANYAQKFQGRVTITADTSTSTAYMELSSLRSEDTAVYYCAREGDIEVVLAARGFFDYWGQGTLVTVSS
VL: DIQMTQSPSSLSASVGDRVTITCRASQGISNYLAWYQQKPGKVPKLLIYAASTLQSGVPSRFSGSGSGTDFTLTISSLQPEDVATYYCQKYNSAPWTFGQGTKVEIKR
Take B14: the Kd is around 0.11 nM.

B15: 5.11h8 (antibody, V domains shown)
VH: QVQLVQSGAEVKKPGSSVKVSCKASGGAFSAYAIDWVRQAPGQGLEWMGGIIPIFGTAHYAQKLQGRVTITADKSTSTAYMELSSLRSEDTAVYYCAREGDSGLVLAARGFFDYWGQGTLVTVSS
VL: DIQMTQSPSSLSASVGDRVTITCRASQGISNYLAWYQQKPGKVPKLLIYAASTLQSGVPSRFSGSGSGTDFTLTISSLQPEDVATYYCQKYNSAPWTFGQGTKVEIKR
The molecule B15 showed a dissociation constant Kd of around 0.68 nM.

B16: 7.9g10 (antibody, V domains shown)
VH: QVQLVQSGAEVKKPGSSVKVSCKASGGTFSSYAISWVRQAPGQGLEWMGGIIPIFGTANYAQKFQGRVTITADKSTNTAYMELSSLRSEDTAVYYCAREDITMVRGVITNYWYFDLWGRGTLVTVSS
VL: DIQMTQSPSSLSASVGDRVTITCRASQDISNYLAWYQQKPGKVPKLLIYAASTLQSGVPSRFSGSGSGTDFTLTISSLQPEDVATYYCQKSNNAPLTFGGGTKVEIKR
As to B16, the Kd was around 0.2 nM.

B17: 1.3g2 (antibody, V domains shown)
VH: QVQLVQSGAEVKKPGSSVKVSCKASGGTFSTYAISWVRQAPGQGLEWMGGIIPIFGTANYAQKFQGRVTIIADKSTNTAYMDLSSLRSEDTAVYYCAREGNLGYDVVTGYSYFVYWGQGTLVTVSS
VL: EIVLTQSPGTLSLSPGERATLSCRASQSVSSSYLAWYQQKPDQVPRLLIYGTSSRATGIPDRFSGSGSGTDFTLTISRLEPEDFAVYYCQQYGRSLTFGGGTKVEIKR
Molecule B17 came in with a Kd of around 1.1 nM.

B18: 7.9c10 (antibody, V domains shown)
VH: QVQLVESGGDVVQPGRSLRLSCAASGITFSNYGMHWVRQAPGKGLEWVAVIWYDGSNKYYADSVKGRFTISRDNSKNTLYLQMNSLRAEDTAVYYCARDRGMTGTTWEYYYYYGMDVWGQGTTVTVSS
VL: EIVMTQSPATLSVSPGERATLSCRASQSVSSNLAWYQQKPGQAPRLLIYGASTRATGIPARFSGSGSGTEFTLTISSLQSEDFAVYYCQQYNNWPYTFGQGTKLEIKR
Turning to B18, the Kd is around 0.11 nM.

B19: 1.10e9 (antibody, V domains shown)
VH: QVQLQQSGPGLVKPSQTLSLTCAISGDSVSSNSAAWNWIRQSPSRGLEWLGRTYYRSKWYNDYAVSVKSRITINPNTSKNQFSLQLNPVTPEDTAVYFCAREWFGEGYFDLWGRGTLVTVSS
VL: EIVMTQSPATLSVSPGESATLSCRASQTIYSNLAWYQRKPGQAPRLLIYRASTRATGIPARFSGSGSGTEFTLTISSLQSEDFAVYCCQQFNNWPYTFGQGTKLEIKR
In turn, B19 registered a Kd of around 0.44 nM.

Broadly, the Kd is the constant that tells how readily two partners part at equilibrium.

Source of the values: patent US20220275059A1 (HARBOUR ANTIBODIES, published 2022).
